Test results reported in article PMC10468207.

Key:
[1] = molecular target: kinase-dead CaMKII (K42R and D135N double mutant) with C-terminal AviTag (human) (UniProt Q9UQM7); experiment: SEC; Superose 6 10/300 increase column; SEC buffer 25 mM Tris pH 8, 250 mM NaCl, 1% glycerol, 1 mM TCEP; assembly of subunits into the holoenzyme
[2] = molecular target: kinase-dead CaMKII (K42R and D135N double mutant) with C-terminal AviTag (human) (UniProt Q9UQM7); experiment: mass photometry; 400 nM CaMKII, activating conditions (8 µM CaMKII incubated with 1.5 µM Ca2+:CaM, 1 mM ATP, 2 mM MgCl2 for 5 min at room temperature, then diluted); 25 mM Tris pH 8, 150 mM KCl, 1 mM TCEP
[3] = molecular target: kinase-dead CaMKII (K42R and D135N double mutant) with C-terminal AviTag (human) (UniProt Q9UQM7); experiment: mass photometry; 400 nM CaMKII, basal conditions; 25 mM Tris pH 8, 150 mM KCl, 1 mM TCEP; Refeyn One MP
CaMKII^F394BzF (human) = CaMKII^F394BzF (human) (UniProt Q9UQM7); experiment: SEC; Superose 6 10/300 increase column; SEC buffer 25 mM Tris pH 8, 250 mM NaCl, 1% glycerol, 1 mM TCEP; assembly of subunits into the holoenzyme

Q: “kinase-dead CaMKII (K42R and D135N double mutant) with C-terminal AviTag (from UniProt Q9UQM7 6-478) (enzyme)” was tested. Which stoichiometry N [1] did it give?
A: 12

Q: And the percent in the tetramer peak [2]?
A: 12%

Q: What about the stoichiometry N [2] of the same substance?
A: 4

Q: What about the stoichiometry N [3] of the same substance?
A: 10

Q: With “CaMKII^F394BzF (from UniProt Q9UQM7 6-478) (enzyme)” as the substance, how does the stoichiometry N (CaMKII^F394BzF (human)) read?
A: 12
